The assay addresses human CD28 in its native form displayed on the cell surface (human) (UniProt P10747). In words: cell-based or functional assay.

Data on one substance can be found in patent publication US20260201039A1.

Some results are limits rather than exact numbers.

As to TGN1412 (IgG4) (antibody), the IL2 secretion, PBMC of 20 donors on plate-coated protein, 72 h is < 80000 pg/mL.
